# Patent publication US20150344570A1 (published 2015)
# T1: FcγRIIb (human, UniProt P31994 43-217)
# T1 construct: extracellular domain; also called 2b; not shown: His tag at the C terminus
# T1 sequence (looked up): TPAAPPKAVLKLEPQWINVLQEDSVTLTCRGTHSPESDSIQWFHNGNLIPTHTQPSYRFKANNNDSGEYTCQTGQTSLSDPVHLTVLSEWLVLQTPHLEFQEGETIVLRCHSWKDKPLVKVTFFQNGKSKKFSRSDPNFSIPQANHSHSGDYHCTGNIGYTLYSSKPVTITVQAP
# T2: FcγRIIa H (human, UniProt P12318 34-217)
# T2 construct: extracellular domain; also called FcγRIIa type H; 2aH; not shown: His tag at the C terminus
# T2 sequence (looked up): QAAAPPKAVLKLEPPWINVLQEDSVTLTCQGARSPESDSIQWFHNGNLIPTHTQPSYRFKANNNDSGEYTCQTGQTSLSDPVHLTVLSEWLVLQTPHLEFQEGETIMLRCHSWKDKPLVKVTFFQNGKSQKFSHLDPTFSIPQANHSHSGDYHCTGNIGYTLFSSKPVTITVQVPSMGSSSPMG
# T3: FcγRIIb, extracellular domain with C-terminal His tag (human, UniProt P31994 43-217)
# T3 construct: extracellular domain; also called FcgRIIb; 2b; not shown: His tag at the C terminus
# T3 sequence (looked up): T1 sequence (looked up)
# T4: FcγRIIa H (FcγRIIa, allotype with His at position 131), extracellular domain with C-terminal His tag (human, UniProt P12318 34-217)
# T4 construct: extracellular domain; also called FcgRIIa H; 2aH; not shown: His tag at the C terminus
# T4 sequence (looked up): T2 sequence (looked up)
# B1: GpH7-A5/GpH7-B3 variant G236_02A/GpL16-k0 (antibody, human IgG1, kappa)
# heavy 1: not shown
# heavy 2: not shown
# light: DIVMTQSPLSLPVTPGEPASISCQASESLVHSNRNTYLHWYLQKPGQSPQLLIYKVSNRFSGVPDRFSGSGSGTDFTLKISRVEAEDVGVYYCSQNTHVPPTFGQGTKVEIERTVAAPSVFIFPPSDEQLKSGTASVVCLLNNFYPREAKVQWKVDNALQSGNSQESVTEQDSKDSTYSLSSTLTLSKADYEKHKVYACEVTHQGLSSPVTKSFNRGEC
# notes: Heterodimerized IgG1; mutation in the GpH7-B3 chain only; also called He Ab
# B2: GpH7-A5/GpH7-B3 variant P331_04F/GpL16-k0 (antibody, human IgG1, kappa)
# heavy 1: not shown
# heavy 2: not shown
# light: B1 light
# notes: Heterodimerized anti-glypican-3 IgG1; mutation in one H chain only; also called He Ab
# B3: GpH7-A5/GpH7-B3 variant P331_20W/GpL16-k0 (antibody, human IgG1, kappa)
# heavy 1: not shown
# heavy 2: not shown
# light: B1 light
# notes: as for B2
# B4: GpH7-A5/GpH7-B3 variant G236_12R/GpL16-k0 (antibody, human IgG1, kappa)
# heavy 1: not shown
# heavy 2: not shown
# light: B1 light
# notes: as for B1
# B5: GpH7-A5/GpH7-B3 variant P331_10E/GpL16-k0 (antibody, human IgG1, kappa)
# heavy 1: not shown
# heavy 2: not shown
# light: B1 light
# notes: as for B2
# B6: GpH7-A5/GpH7-B3 variant G236_07I/GpL16-k0 (antibody, human IgG1, kappa)
# heavy 1: not shown
# heavy 2: not shown
# light: B1 light
# notes: as for B1
# B7: GpH7-A5/GpH7-B3 variant L328_07I/GpL16-k0 (antibody, human IgG1, kappa)
# heavy 1: not shown
# heavy 2: not shown
# light: B1 light
# notes: as for B2
# B8: GpH7-A5/GpH7-B3 variant G236_06M/GpL16-k0 (antibody, human IgG1, kappa)
# heavy 1: not shown
# heavy 2: not shown
# light: B1 light
# notes: as for B1
# B9: GpH7-A5/GpH7-B3 variant G236_13S/GpL16-k0 (antibody, human IgG1, kappa)
# heavy 1: not shown
# heavy 2: not shown
# light: B1 light
# notes: as for B1
# B10: GpH7-A5/GpH7-B3 variant N325_13S/GpL16-k0 (antibody, human IgG1, kappa)
# heavy 1: not shown
# heavy 2: not shown
# light: B1 light
# notes: as for B2
# B11: GpH7-A5/GpH7-B3 variant L328_15Y/GpL16-k0 (antibody, human IgG1, kappa)
# heavy 1: not shown
# heavy 2: not shown
# light: B1 light
# notes: as for B2
# B12: GpH7-A5/GpH7-B3 variant N325_15Y/GpL16-k0 (antibody, human IgG1, kappa)
# heavy 1: not shown
# heavy 2: not shown
# light: B1 light
# notes: as for B2
# B13: GpH7-A5/GpH7-B3 variant N325_20W/GpL16-k0 (antibody, human IgG1, kappa)
# heavy 1: not shown
# heavy 2: not shown
# light: B1 light
# notes: as for B2
# B14: GpH7-A5/GpH7-B3 variant L328_10E/GpL16-k0 (antibody, human IgG1, kappa)
# heavy 1: not shown
# heavy 2: not shown
# light: B1 light
# notes: as for B2
# B15: GpH7-A5/GpH7-B3 variant P331_16H/GpL16-k0 (antibody, human IgG1, kappa)
# heavy 1: not shown
# heavy 2: not shown
# light: B1 light
# notes: as for B2
# B16: GpH7-A5/GpH7-B3 variant G236_08L/GpL16-k0 (antibody, human IgG1, kappa)
# heavy 1: not shown
# heavy 2: not shown
# light: B1 light
# notes: as for B1
# B17: GpH7-A5/GpH7-B3 variant L328_06M/GpL16-k0 (antibody, human IgG1, kappa)
# heavy 1: not shown
# heavy 2: not shown
# light: B1 light
# notes: as for B2
# Tests used:
# FcγRIIb = molecular target: T1, FcγRIIb; experiment: SPR (Biacore), antibody captured, FcγR as analyte; binding relative to GpH7-A5/GpH7-B3/GpL16-k0 = 100
# Method: (§1) The heterodimerized antibodies He Abs in which one of the H chains was introduced with an alteration were assayed for their binding activities to each activating FcγR and inhibitory FcγR according to the method described in Example 4. […] The activating FcγRs in FIGS. 26, 27, 28, and 29 are FcγRIa, FcγRIIa (R), FcγRIIa (H), and FcγRIIIa, respectively.
# (§2) Analysis of interaction between objective antibody and the FcγR was carried out using Biacore T100 (GE Healthcare). HBS-EP+ (GE Healthcare) was used as the running buffer, and the measurement temperature was set to 25° C. Chips produced by immobilizing the antigen peptide by the amine coupling method to a Series S Sencor Chip CM5 (GE Healthcare), or alternatively, chips produced by allowing preliminarily biotinylated antigen peptides to interact with and immobilize onto a Series S Sensor Chip SA (certified) (GE Healthcare) were used. Antibodies of interest were captured onto an antigen peptide-immobilized chip, and allowed to interact to each FcγR diluted with running buffer. To regenerate and repeatedly use the chip, the antibodies captured on the chip were washed off by reacting 10 mM glycine-HCl, pH 1.5.
# FcγRIIa H [1] = molecular target: T2, FcγRIIa H; experiment: as above
# Method: as §1, §2
# FcγRIIa H [2] = molecular target: T2, FcγRIIa H; experiment: SPR (Biacore); He/Con_2aH divided by He/Con_2b (FcγRIIa H over FcγRIIb)
# [3] = molecular target: T3, FcγRIIb, extracellular domain with …; experiment: SPR (Biacore), relative binding vs GpH7-A5/GpH7-B3/GpL16-k0
# [4] = molecular target: T4, FcγRIIa H (FcγRIIa, allotype with His …); experiment: as above
# [5] = molecular target: T4, FcγRIIa H (FcγRIIa, allotype with His …); experiment: SPR (Biacore); He/Con_2aH divided by He/Con_2b (FcγRIIb)
Binder,He/Con_2b (FcγRIIb),He/Con_2aH (FcγRIIa H [1]),He_2aH/2b (IIaH/IIb) (FcγRIIa H [2]) [ratio],He/Con_2b [3],He/Con_2aH [4],He_2aH/2b (IIaH/IIb) [5] [ratio]
B1,96.5 % of control,139 % of control,1.44,,,
B2,,,,110 % of HeCon Ab (=100),84.7 % of HeCon Ab (=100),0.77
B3,,,,111 % of HeCon Ab (=100),82.8 % of HeCon Ab (=100),0.75
B4,6.8 % of control,34.2 % of control,5.04,,,
B5,,,,116 % of HeCon Ab (=100),87.1 % of HeCon Ab (=100),0.75
B6,31 % of control,115 % of control,3.72,,,
B7,,,,160 % of HeCon Ab (=100),93.9 % of HeCon Ab (=100),0.59
B8,45.5 % of control,85.7 % of control,1.88,,,
B9,96.7 % of control,135 % of control,1.39,,,
B10,,,,177 % of HeCon Ab (=100),79.7 % of HeCon Ab (=100),0.45
B11,,,,193 % of HeCon Ab (=100),90 % of HeCon Ab (=100),0.47
B12,,,,99.5 % of HeCon Ab (=100),41.2 % of HeCon Ab (=100),0.41
B13,,,,169 % of HeCon Ab (=100),47.2 % of HeCon Ab (=100),0.28
B14,,,,172 % of HeCon Ab (=100),55.5 % of HeCon Ab (=100),0.32
B15,,,,116 % of HeCon Ab (=100),84.5 % of HeCon Ab (=100),0.73
B16,26.8 % of control,75.8 % of control,2.83,,,
B17,,,,142 % of HeCon Ab (=100),104 % of HeCon Ab (=100),0.73
